{"source": "paper PMC4164784", "about": "“4E-BPs require non-canonical 4E-binding motifs and a lateral surface of eIF4E to repress translation” (Nature Communications, 2014)", "key": {"[1]": {"target": "T1, Dm eIF4E II-AA mutant (I96A, I112A; residues 69–248) (Drosophila melanogaster, UniProt P48598, I107A/I123A)", "T1 construct": "The solution of eIF4E (residues 69–248, WT or mutant: 1–20 μM) in the calorimetric cell; His6 (N, cleaved yes); made in house; host or cells: E. coli BL21 Star (DE3)", "T1 sequence (P48598 80-259 I107A/I123A)": "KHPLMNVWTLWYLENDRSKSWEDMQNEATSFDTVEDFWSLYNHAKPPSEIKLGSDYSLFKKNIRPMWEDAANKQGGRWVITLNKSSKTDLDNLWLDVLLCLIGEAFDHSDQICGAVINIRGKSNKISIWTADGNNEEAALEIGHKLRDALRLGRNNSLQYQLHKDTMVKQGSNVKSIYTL", "assay": "ITC, binding to eIF4E II-AA mutant (residues 69–248)", "conditions": "for affinity for eIF4E II-AA mutant relative to WT (in words): bipartite peptides (C+NC) or eIF4G, lateral-surface mutant vs WT", "description": "Unless indicated otherwise, all the proteins were expressed in E. coli BL21 Star (DE3) cells (Invitrogen) that were grown in LB medium overnight at 20 °C. The lysis buffers were supplemented with DNaseI (5 μg ml^−1), lysozyme (1 mg ml^−1) and protease inhibitor cocktail (Roche). The truncated His6-eIF4E (residues 69–248) that was used in the ITC experiments and in Figs 2c and 5b was purified in lysis buffer containing 50 mM HEPES (pH 7.2), 300 mM NaCl, 20 mM imidazole and 2 mM β-mercaptoethanol using Ni^2+-affinity chromatography (HisTrap HP 5 ml, GE Healthcare) and eluted with a gradient of 20–500 mM imidazole. After the cleavage of the His6-tag with HRV3C protease (homemade), the protein was further purified using a heparin column (HiTrap Heparin HP 5 ml, GE Healthcare), followed by size exclusion chromatography (Superdex 75 16/60, GE Healthcare) in 20 mM Na-phosphate (pH 7.0), 300 mM NaCl and 2 mM dithiothreitol (DTT).\nFor the ITC measurements and the competition assays shown in Figs 4 and 5d–g, the 4E-BP peptides corresponding to the canonical (C) motifs, the combined (C+NC) motifs or L+NC were expressed with an HRV3C cleavable N-terminal MBP-tag and a non-cleavable C-terminal GB1 domain. The cells were lysed by sonication in lysis buffer containing 50 mM HEPES (pH 7.2), 300 mM NaCl and 2 mM DTT. The proteins were purified from the cleared lysates using amylose resin (New England Biolabs) followed by the cleavage of the MBP tag with HRV3C protease overnight at 4 °C. The proteins were further purified by size exclusion chromatography (Superdex 75 16/60, GE Healthcare) in 20 mM Na-phosphate (pH 7.0), 300 mM NaCl and 2 mM DTT. For the eIF4G fragment (residues 578–650) the MBP was removed after cleavage with TEV protease through an additional anion exchange chromatography (HiTrap Q HP 5 ml, GE Healthcare) before the final gel filtration.\nThe ITC experiments were performed using a VP-ITC microcalorimeter (MicroCal) at 20 °C. The solution of eIF4E (residues 69–248, WT or mutant: 1–20 μM) in the calorimetric cell was titrated with tenfold concentrated solutions of GB1-stabilized peptides corresponding to 4E-BPs C+NC (10 μM), C (50 μM), L+NC (100 μM CUP, 200 μM Thor and 4E-T) or eIF4G (residues 578–650, 20 μM) that were dissolved in the same buffer (20 mM Na-phosphate (pH 7.0) and 150 mM NaCl). The titration experiments consisted of an initial injection of 2 μl followed by 28 injections of 10 μl at an interval of 240 s. Each binding experiment was repeated twice. The thermodynamic parameters were estimated using a one-site binding model (Origin version 7.0), whereby the datapoint of the first injection was removed for the analysis.\nmutant (residues 69-248) and CUP (a), Thor (b), 4E-T (c) and eIF4G (d) peptides. The\nmeasurements were performed as described in Supplementary Fig. 3. The solutions\ncontained the 4E-BP C+NC peptides (10 µM) and 20 µM for the eIF4G peptide. The eIF4E\nII-AA mutant concentration in the calorimetric cell was 5 µM."}, "[2]": {"target": "T2, eIF4E–eIF4G complex (eIF4E WT; eIF4G residues 578–650) (Drosophila melanogaster, UniProt P48598)", "T2 construct": "full-length eIF4E (WT or the II-AA mutant) containing an N-terminal SNH-tag was coexpressed; made in house; host or cells: E. coli BL21 Star (DE3), coexpression", "T2 sequence (P48598 1-248 isoform P48598-2)": "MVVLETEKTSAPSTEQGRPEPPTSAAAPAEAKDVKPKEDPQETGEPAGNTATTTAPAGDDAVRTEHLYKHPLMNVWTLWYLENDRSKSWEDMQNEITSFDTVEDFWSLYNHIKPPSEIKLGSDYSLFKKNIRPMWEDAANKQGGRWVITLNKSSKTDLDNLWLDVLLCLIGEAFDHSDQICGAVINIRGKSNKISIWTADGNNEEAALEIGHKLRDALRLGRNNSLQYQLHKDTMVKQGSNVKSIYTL", "assay": "Competition assay, displacement of GST-eIF4G from preassembled eIF4E (WT)–eIF4G complexes", "format": "biochemical", "conditions": "for displacement of eIF4G from eIF4E WT–eIF4G complex (in words): 2–20 μM GB1-fused competitor, Strep-Tactin pull down; for competition with eIF4G for eIF4E WT (in words): Fig. 5a,c, fivefold molar excess of MBP-tagged competitor, 30 min at 4 °C, m7GTP or Strep-Tactin pull down", "description": "For the competition assays shown in Figs 5a,c and 6a,b, complexes containing SHN- or MBP-tagged eIF4E (WT or II-AA mutant) bound to GST-eIF4G (residues 578–650), GST-Thor (full length), GST-4E-T (residues 1–58) or GST-CUP (311–440) were obtained by coexpressing the corresponding proteins in E. coli BL21 (DE3) STAR cells (30 ml culture). The cells were resuspended in lysis buffer (5 ml) that was supplemented with EDTA-free protease inhibitor (Roche) and 1 mg ml^−1 lysozyme and lysed by sonication. The cleared lysates were incubated with 400 μl of Protino Glutathione Agarose 4B (Macherey-Nagel) for 1 h. The beads were washed three times with lysis buffer, and the proteins were eluted after 10 min of incubation with lysis buffer containing 25 mM L-glutathione. The protein complexes were stored at −20 °C or used in competition assays.\nThe purified recombinant complexes were mixed with excess amounts of the indicated purified competitor proteins (Fig. 5c) or with bacterial lysates expressing the competitor proteins (Figs 5a and 6) and incubated for 30 min at 4 °C. After incubation, 20 μl of immobilized γ-Aminophenyl-m^7GTP or Strep-Tactin Sepharose (IBA), were added to the samples and incubated for another 40 min at 4 °C. The beads were washed three times with lysis buffer and eluted with lysis buffer containing 2.5 mM desthiobiotin (Strep-Tactin Sepharose) or with 20 μl of SDS–PAGE loading buffer (Aminophenyl-m^7GTP beads). The proteins were analyzed by 10–15% SDS–PAGE followed by staining with Coomassie blue staining. […]"}, "[3]": {"conditions": "eIF4E II-AA (69–248), 20 °C, pH 7.0"}, "[4]": {"conditions": "Fig. 4, 2 μM complex, 20 min at 4 °C, n=2"}}, "note": "No end group written: not given here."}
{"substance": "CUP C+NC: CUP residues 325–376, eIF4E-binding region short, C-terminal GB1 (KSYTRSRLMDIRNGMFNALMHRSKESFVMPRIATCDDIELEGRLRRMNIWRT-GB1; UniProt Q9VMA3 325-376, looked up, fragment)", "values": [{"measurement": "Kd", "setting": "[1]; VP-ITC, 20 °C, 20 mM Na-phosphate (pH 7.0), 150 mM NaCl, GB1-fused C+NC peptides (10 μM) or eIF4G (20 μM) into eIF4E II-AA 5 μM, one-site model, each experiment repeated twice", "result": 50, "unit": "nM"}, {"measurement": "affinity for eIF4E II-AA mutant relative to WT (in words)", "setting": "[1]", "result": "reduced by one and two orders of magnitude, respectively"}, {"measurement": "TΔS", "setting": "[1]; [3]", "result": 8.79, "unit": "kcal/mol"}, {"measurement": "ΔG", "setting": "[1]; [3]", "result": -9.84, "unit": "kcal/mol"}, {"measurement": "ΔH", "setting": "[1]; [3]", "result": "-18.6 ± 0.7", "unit": "kcal/mol"}, {"measurement": "displacement of eIF4G from eIF4E WT–eIF4G complex (in words)", "setting": "[2]; [4]", "result": "displaced eIF4G from the complex and associated with eIF4E"}, {"measurement": "molar excess at which eIF4G was effectively displaced", "setting": "[2]; Fig. 4, 2 μM complex, GB1-fused C+NC competitor, 20 min at 4 °C, n=2", "result": "two"}, {"measurement": "competition with eIF4G for eIF4E WT (in words)", "setting": "[2]", "result": "efficiently displaced preassembled eIF4G"}]}
{"substance": "Thor C+NC: Thor residues 50–83, eIF4E-binding region short, C-terminal GB1 (TKLIYERAFMKNLRGSPLSQTPPSNVPSCLLRGT-GB1; UniProt Q9XZ56 50-83, looked up, fragment)", "values": [{"measurement": "affinity for eIF4E II-AA mutant relative to WT (in words)", "setting": "[1]", "result": "reduced by one and two orders of magnitude, respectively"}, {"measurement": "TΔS", "setting": "[1]; [3]", "result": -0.91, "unit": "kcal/mol"}, {"measurement": "ΔG", "setting": "[1]; [3]", "result": -8.46, "unit": "kcal/mol"}, {"measurement": "displacement of eIF4G from eIF4E WT–eIF4G complex (in words)", "setting": "[2]; [4]", "result": "displaced eIF4G from the complex and associated with eIF4E"}]}
{"substance": "4E-T C+NC: 4E-T residues 9–44, eIF4E-binding region short, C-terminal GB1", "values": [{"measurement": "affinity for eIF4E II-AA mutant relative to WT (in words)", "setting": "[1]", "result": "not significantly affected"}, {"measurement": "TΔS", "setting": "[1]; [3]", "result": 2.16, "unit": "kcal/mol"}, {"measurement": "ΔG", "setting": "[1]; [3]", "result": -10.80, "unit": "kcal/mol"}, {"measurement": "displacement of eIF4G from eIF4E WT–eIF4G complex (in words)", "setting": "[2]; [4]", "result": "displaced eIF4G from the complex and associated with eIF4E"}]}
{"substance": "Thor C: Thor residues 50–63, canonical motif", "values": [{"measurement": "competition with eIF4G for eIF4E WT (in words)", "setting": "[2]", "result": "abolished competition"}]}
